Measurements reported in patent US20230303674A1 (BETH ISRAEL DEACONESS MEDICAL CENTER, published 2023).
Ends that are not written are not given here.

B1: human α-CGRP 1-36-COOH (peptide)
peptide: ACDTATCVTHRLAGLLSRSGGVVKNNFVPTNVGSKA-OH
modifications: ends and bridges not checked
notes: free C-terminal carboxyl, not amidated; also called 1-36 (not amidated at the C-terminus)
B2: human α-CGRP 1-19-COOH (peptide)
peptide: ACDTATCVTHRLAGLLSRS-OH
modifications: ends and bridges not checked
notes: not amidated
B3: human α-CGRP 1-13-COOH (peptide)
peptide: ACDTATCVTHRLA-OH
modifications: ends and bridges not checked
notes: not amidated
B4: human α-CGRP 19-37-COOH (peptide)
peptide: SGGVVKNNFVPTNVGSKAF-OH
notes: free C-terminal carboxyl, not amidated; also called 19-37 (not amidated at the C-terminus)

Columns and labels:
antibody G1 Fab fragment [1] = assay: Biacore, 50 nM G1 Fab with 10 µM peptide, over human α-CGRP on chip
antibody G1 Fab fragment, sequence (VH, as listed by the source, chain 1 of 2): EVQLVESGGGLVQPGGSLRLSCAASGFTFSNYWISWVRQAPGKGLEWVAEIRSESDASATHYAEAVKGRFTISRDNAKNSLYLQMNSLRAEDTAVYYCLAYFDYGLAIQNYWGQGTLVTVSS
antibody G1 Fab fragment, sequence (VL, as listed by the source, chain 2 of 2): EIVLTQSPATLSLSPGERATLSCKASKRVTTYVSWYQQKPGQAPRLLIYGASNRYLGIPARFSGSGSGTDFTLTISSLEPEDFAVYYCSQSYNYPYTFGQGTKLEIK
From the text: (§1) Y axis represents percentage of binding blocked by the presence of the competing peptide compared with the binding in the absence of the competing peptide.
(§2) All these peptides are amidated at the C-terminus.

antibody G1 Fab fragment [2] = assay: Biacore competition: G1 Fab (50 nM) pre-incubated 1 h with 10 µM competing peptide, flowed over N-biotinylated human α-CGRP on SA chip
From the text: as §1, §2

antibody G1 Fab fragment [3] = assay: Biacore competition: G1 Fab (50 nM) pre-incubated with competing peptide, flowed over human α-CGRP on SA chip
From the text: as §1, §2

| Binder | % of binding blocked (antibody G1 Fab fragment [1]) | % Binding Blocked (antibody G1 Fab fragment [2]) | binding result (antibody G1 Fab fragment [3]) |
| --- | --- | --- | --- |
| B1 | ~40% | 40.6% | – |
| B2 | – | – | no binding (tested: 10 µM) |
| B3 | – | – | no binding (tested: 10 µM) |
| B4 | – | 83.3% | – |
